T1: human PTK7 protein (extracellular sequence of human PTK7 with C-terminal 6×His tag) (human, UniProt Q13308 31-704)
T1 construct: extracellular domain; Expressed transiently in HEK293 cells; also called human PTK7-His; human PTK7-His protein
T1 sequence: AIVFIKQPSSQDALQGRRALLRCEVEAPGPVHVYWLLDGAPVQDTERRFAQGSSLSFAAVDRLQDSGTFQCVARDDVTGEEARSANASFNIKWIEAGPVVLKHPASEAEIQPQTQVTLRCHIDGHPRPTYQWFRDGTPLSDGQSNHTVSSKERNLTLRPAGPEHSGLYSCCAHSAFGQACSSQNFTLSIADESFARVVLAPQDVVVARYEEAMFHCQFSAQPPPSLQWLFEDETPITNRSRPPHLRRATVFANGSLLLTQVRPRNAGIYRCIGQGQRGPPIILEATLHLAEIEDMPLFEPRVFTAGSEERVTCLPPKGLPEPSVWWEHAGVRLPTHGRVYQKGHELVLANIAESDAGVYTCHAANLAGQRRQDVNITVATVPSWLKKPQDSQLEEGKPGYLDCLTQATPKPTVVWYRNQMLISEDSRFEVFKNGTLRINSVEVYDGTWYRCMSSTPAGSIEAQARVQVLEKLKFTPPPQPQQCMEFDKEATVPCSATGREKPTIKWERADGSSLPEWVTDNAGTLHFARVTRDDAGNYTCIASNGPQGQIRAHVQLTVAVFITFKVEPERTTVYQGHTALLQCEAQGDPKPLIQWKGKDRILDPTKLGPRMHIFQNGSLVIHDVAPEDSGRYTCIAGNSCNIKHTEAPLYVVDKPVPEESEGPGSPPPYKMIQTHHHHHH

T2: human Fc receptor protein CD32b (human, UniProt P31994 43-217, biotinylated)
T2 construct: Biotinylated protein captured on SA sensors
T2 sequence (looked up): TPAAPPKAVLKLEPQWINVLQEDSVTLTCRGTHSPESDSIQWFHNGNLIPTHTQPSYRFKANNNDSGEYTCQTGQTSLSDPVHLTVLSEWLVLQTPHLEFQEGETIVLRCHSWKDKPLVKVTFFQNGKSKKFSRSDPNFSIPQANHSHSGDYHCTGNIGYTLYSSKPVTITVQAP

T3: human Fc receptor protein CD32a (human, UniProt P12318 34-217, biotinylated)
T3 construct: Biotinylated protein captured on SA sensors
T3 sequence (looked up): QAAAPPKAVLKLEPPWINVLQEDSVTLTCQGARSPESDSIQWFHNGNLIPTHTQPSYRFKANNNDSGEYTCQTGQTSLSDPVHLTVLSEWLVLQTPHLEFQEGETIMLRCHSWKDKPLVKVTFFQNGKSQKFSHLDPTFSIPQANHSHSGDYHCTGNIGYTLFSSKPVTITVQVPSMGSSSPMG

T4: human PTK7 on cells (tumor cells endogenously expressing PTK7); CHO-hPTK7, CHO-S-hPTK7 and 293T-hPTK7 … (human, UniProt Q13308 31-1070)
T4 sequence (looked up): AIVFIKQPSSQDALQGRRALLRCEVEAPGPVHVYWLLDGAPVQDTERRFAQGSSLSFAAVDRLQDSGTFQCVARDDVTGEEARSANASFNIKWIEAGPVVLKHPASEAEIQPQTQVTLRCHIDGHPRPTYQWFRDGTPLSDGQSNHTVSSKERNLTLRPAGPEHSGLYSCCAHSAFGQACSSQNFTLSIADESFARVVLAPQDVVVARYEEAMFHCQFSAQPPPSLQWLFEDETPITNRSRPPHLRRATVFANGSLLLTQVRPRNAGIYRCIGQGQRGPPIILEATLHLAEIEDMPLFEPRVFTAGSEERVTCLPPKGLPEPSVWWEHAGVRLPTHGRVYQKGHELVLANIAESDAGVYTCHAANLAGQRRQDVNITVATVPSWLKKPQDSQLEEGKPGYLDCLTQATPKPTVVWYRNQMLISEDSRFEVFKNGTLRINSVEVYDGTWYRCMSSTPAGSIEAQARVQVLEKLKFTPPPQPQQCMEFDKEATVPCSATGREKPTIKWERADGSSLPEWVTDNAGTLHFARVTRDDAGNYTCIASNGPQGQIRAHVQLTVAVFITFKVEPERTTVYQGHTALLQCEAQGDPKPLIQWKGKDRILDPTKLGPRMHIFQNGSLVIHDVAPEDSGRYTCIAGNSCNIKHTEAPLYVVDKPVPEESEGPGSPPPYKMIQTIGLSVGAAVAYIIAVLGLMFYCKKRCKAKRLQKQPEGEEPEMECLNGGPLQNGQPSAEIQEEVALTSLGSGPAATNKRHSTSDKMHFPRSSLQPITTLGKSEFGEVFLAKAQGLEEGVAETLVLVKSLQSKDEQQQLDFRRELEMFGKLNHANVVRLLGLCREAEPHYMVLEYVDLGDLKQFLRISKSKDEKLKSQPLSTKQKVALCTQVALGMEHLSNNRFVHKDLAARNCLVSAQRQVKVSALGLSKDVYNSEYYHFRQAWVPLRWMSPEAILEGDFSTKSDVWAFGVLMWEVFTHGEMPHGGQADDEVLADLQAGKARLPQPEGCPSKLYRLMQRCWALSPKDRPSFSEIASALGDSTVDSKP

B1: 64A10HZ (anti-human PTK7 humanized antibody) (antibody, human IgG1, kappa, V domains shown)
VH: QVQLQESGPGLVKPSETLSLTCTVSGFSLTSYGVYWVRQPPGKGPEWLGVIWTSGNTNYNPSLKSRLTISKDNSKNQVSLKLSSVTAADTAVYYCVKHDGGNYVGVMNYWGQGTLVTVSS
VL: EIVMTQSPDFQSVTPKEKVTITCRASQSISDYLHWYQQKPDQSPKLLIKYASQSISGVPSRFSGSGSGSDFTLTINSLEAEDAATYYCQNGHSFPPTFGQGTKLEIKR
notes: Human IgG1 heavy chain constant region and human Kappa light chain constant region; expressed in CHO-S cells
B2: 101A6HZ (anti-human PTK7 humanized antibody) (antibody, human IgG1, kappa)
heavy: not shown
light: DIVMTQSPDSLAVSLGERATINCKASQDVGSAVIWYQQKPGQSPKLLIYWASTRHTGVPDRFSGSGSGTDFTLTISSLQAEDVAVYYCQQYSSYPLTFGQGTKLEIKRTVAAPSVFIFPPSDEQLKSGTASVVCLLNNFYPREAKVQWKVDNALQSGNSQESVTEQDSKDSTYSLSSTLTLSKADYEKHKVYACEVTHQGLSSPVTKSFNRGEC
B3: Hu24 (PTK7 control antibody, taken from Hu24 in the Patent CN201580030255) (antibody)
chain 1: QVQLVQSGPEVKKPGASVKVSCKASGYTFTDYAVHWVRQAPGKRLEWIGVISTYNDYTYNNQDFKGRVTMTRDTSASTAYMELSRLRSEDTAVYYCARGNSYFYALDYWGQGTSVTVSS
chain 2: EIVLTQSPATLSLSPGERATLSCRASESVDSYGKSFMHWYQQKPGQAPRLLIYRASNLESGIPARFSGSGSGTDFTLTISSLEPEDFAVYYCQQSNEDPWTFGGGTKLEIK

Assays:
[1] = target: T1, human PTK7 protein (extracellular …); experiment: competition ELISA on coated human PTK7 protein; competitor: biotin-labelled 64A10HZ at a fixed concentration
Procedure: The human PTK7 protein was diluted to reach 1 μg/ml by using the CBS coating liquid, coated by a 96-well microtiter plate at a density of 100 μl/well, and stood overnight at 4° C.; and after the plate was washed and blocked, the biotin-labeled antibody and the to-be-detected antibody were added, and incubated for 2 h at room temperature. After the plate was washed, the secondary antibody was added for incubation, and finally was subjected to color development, then the reaction was terminated, and the absorbance at OD₄₅₀ nm was read by the microplate reader. The original data was imported into software for nonlinear curve fitting (four parameters).

[2] = target: T5, rat PTK7 protein (extracellular sequence of rat PTK7 with C-terminal 6×His tag) (rat, UniProt A0A8I6ALM9 40-713); experiment: ELISA, coated rat PTK7 protein
T5 construct: extracellular domain; Expressed transiently in HEK293 cells

[3] = target: T2, human Fc receptor protein CD32b; experiment: BLI (ForteBio), biotinylated receptor on SA sensor, antibody from 5,000 nM, 1:1 global fit
From the text: (§1) The dynamic affinity of the antibodies 101A6HZ, 101A6HZm and Hu24 with human Fc receptor proteins CD16a, CD32a, CD32b, CD64 and FcRn was detected through ForteBio (Pall life sciences).

[4] = target: T6, human Fc receptor protein CD16a (human, UniProt P08637 17-208, biotinylated); experiment: as above
T6 construct: Biotinylated protein captured on SA sensors
From the text: as §1

[5] = target: T3, human Fc receptor protein CD32a; experiment: as above
From the text: as §1

[6] = target: T4, human PTK7 on cells (tumor cells …); experiment: cell-based or functional assay

T6 sequence (P08637 17-208 limits assumed): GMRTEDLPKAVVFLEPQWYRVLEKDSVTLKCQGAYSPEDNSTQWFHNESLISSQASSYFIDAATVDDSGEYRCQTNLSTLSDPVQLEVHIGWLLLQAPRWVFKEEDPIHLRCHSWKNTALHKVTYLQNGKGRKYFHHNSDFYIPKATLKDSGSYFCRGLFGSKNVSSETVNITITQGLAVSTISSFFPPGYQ

Binder	IC50 (read off the curve) [1]	binding result [2]	Kd [3]	Kd [4]	Kd [5]	Cell endocytosis, EC50, A431 cells [6]	Cell endocytosis, EC50, HCC1806 cells [6]	Cell endocytosis, EC50, NCI-H358 cells [6]	Cell endocytosis, EC50, OVCAR3 cells [6]
B1	~0.2 µg/mL	no binding	–	–	–	–	–	–	–
B2	–	no binding	1780 nM	1010 nM	2270 nM	–	–	–	–
B3	–	–	1760 nM	1190 nM	1730 nM	0.0743 µg/mL	0.0659 µg/mL	0.0708 µg/mL	0.101 µg/mL

Source: patent US20260250420A1 (SICHUAN KELUN BIOTECH BIOPHARMACEUTICAL, published 2026)
